From article PMC10847457 (Cell Discovery, 2024) come the findings set out here.

For assay [1], the target named is T1, SARS-CoV-2 NTD (aa 1-305) (SARS-CoV-2, UniProt P0DTC2).
T1 construct: source: Expi293 cells, transient transfection (pCMV3), purified
The assay can be described thus: ELISA. To be noted: both partners purified.

Assay [2] has as its target T2, SARS-CoV-2 RBD (aa 319-541) (SARS-CoV-2, UniProt P0DTC2).
T2 construct: source: Expi293 cells, transient transfection (pCMV3), purified
The assay can be described thus: ELISA. The following applies: both partners purified. In general terms: ELISA stands for enzyme-linked immunosorbent assay.

B1: PW5-535 (antibody, V domains shown)
VH: EVRLVESGGGLVQPGGSLRLSCAASGFTFRNYDIHWVRQTTGKGLEWVSAVGTSGDTYYLDSVKGRFTISREDAKKSVYLQMNSLRAGDTAMYYCVRGDASPDNIYYYMDVWGTGTRVIVSS
VL: DIQVTQSPSPLSASVGDRVTITCRASQTIGKYLNWYHQIPGKAPKLLISAASTLHSGVPSRFSGRGSGTDFTLTISSLQPEDFGTYYCQQSYSSPPWTFGQGTKVEIK
Take B1: the figures for the binding result in assay [1] and in assay [2] were “no binding” and “binds”, respectively.

B2: PW5-570 (antibody, V domains shown)
VH: QMQLVQSGPEVRKPGTSVKVSCRASVFSFDTSAVQWVRQARGQPLEWIGWIVFGSSNTDYAQKFRDRVTITGDMSTGTAYMELSSLRSEDTAVYYCAAPHCNRTNCHDGFDIWGQGTVVTVSS
VL: EIVLTQSPGTLSLSPGERATLSCRASQSVRSGYLGWYQQKPGQAPRLLIYGAYNRATGIPDRFRGSGSGTDFTLTISRLEPEDFVVYYCQQYDRSPWTFGQGTKVEIK
notes: also called PW5-570 IgG; PW5-570 immunoglobulin G
As to B2, the results for the binding result in assay [1] and in assay [2] were “no binding” and “binds”, respectively.

B3: PW5-5 (antibody, V domains shown)
VH: QVQLVQSGAEVKKPGASVKVSCKTSGYTFTDHYMYWVRQAPGQGLEWMGVINPDAGSVTYAQKFQGRVTMTSDTSTSTVYMELSSLRSEDTAVYYCARDLFFIPAANSFDYWGQGTLVTVSS
VL: EIVLTQSPATLSLSPGERATLSCRASQSVSSYLAWYQQKPGQAPRLLIYDATNRATGIPARFSGSGSGTDFTLTISSLEPEDFAVYYCQHRSNWPRMFTFGQGTKLEIK
notes: also called PW5-5 IgG; IgG PW5-5
For B3, the binding result in assay [1] is on record as “no binding”; in assay [2], “binds”.
